# The nanobody polyreactivity screen of Harvey et al. (2022)
# Test: yeast display, Sf9 membrane polyspecificity reagent, FACS + sequencing; frameworks hold sequencing errors
# Procedure, shortened: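 Synthetic nanobody libraries on Saccharomyces cerevisiae BJ5465 were galactose-induced for 36–48 hours, stained 1 hour at 4 °C with 10% biotinylated, detergent-solubilized Sf9 membrane reagent and enriched on streptavidin microbeads. FACS then separated cells into low and high (top ~1%) gates by anti-HA (expression) and streptavidin (reagent binding) fluorescence. Genes were colony-PCR amplified, MiSeq 2 × 250 sequenced and CDR-length filtered. A clone's polyreactivity label is that of its gate of origin.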
row,Sequence,polyreactivity (PSR sort gate)
1,QVQLVESGGGLVQAGGSLRLSCAASGFTFARYVMGWYRQAPGKERELVAAISWRGTRTFYADSVKGRFTISRDNAKNTVYLQMNSLKPEDTAVYYCAADSRPPKYDYWGQGTQVTVSS,high polyreactivity
2,QVQLVESGGGLVQAGGSLRLSCAASGFTFASNAMGWYRQAPGKERELVAGISRTGTTTYYADSVKGRFTISRDNAKNTVYLQMNSLKPEDTAVYYCAKGSNSYLRYHYTYPYDYWGQGTQVTVSS,high polyreactivity
3,QVQLVESGGGLVQAGGSLRLSCAASGFTFASNDMGWYRQAPGKERELVASITKGGGRTYYADSVKGRFTISRDNAKNTVYLQMNSLKPEDTAVFYCAARQLIKYDYWGQGTQVTVSS,low polyreactivity
4,QVQLVESGGGLVQAGGSLRLSCAASGFTFASNGRGGYRQAPGKERELVAVIDWSDDSTYYADSVKGRFTISRDNAKNTVYLQMNSLKPEDTAVYYCNADDWWGGYDYWGQGTQVTVSS,low polyreactivity
5,QVQLVESGGGLVQAGGSLRLSCAASGFTFATYDMGLYRQAPGKERELVAAISRSGGRTYYADSVKVLFTISRDYAKNTVYLQMNSLKPEDTAVYYCAKYVPGYPYDYWGQGTQVTVSS,high polyreactivity
6,QVQLVESGGGLVQAGGSLRLSCAASGFTFAVNAMGWYRQAPGKERELVAAISWSGVSTYYADSVKRRFTISRDNAKNTVYLQMNSLKPEDTAVYYCARRRTKSYTRKYDYWGQGTQVTVSS,low polyreactivity
7,QVQLVESGGGLVQAGGSLRLSCAASGFTFAVYAMGWYRQAPGKERELVAAIDSSDGSTSYADSVKGRFTISRDNAKNTVYLQMNSLKPEDTAVYYCAGDQYWWFYEYEYWGQGTQVTVSS,low polyreactivity
8,QVQLVESGGGLVQAGGSLRLSCAASGFTFAVYAMGWYRQAPGKERELVAAINRGGGSTYYADSVKGRFTISRDNAKNTVYLQMNSLKPEDTAVYYCNKRYRVWFDYWGQGTQVTLSS,high polyreactivity
9,QVQLVESGGGLVQAGGSLRLSCAASGFTFAVYVMGWYRQAPGKERELVATISFSVGSTYYADSVKGRFTISRDNAKNTVYLQMNSLKPEDTAVYYCNADPPPEYYPDKDNYWGQGTQVTVSS,low polyreactivity
10,QVQLVESGGGLVQAGGSLRLSCAASGFTFAWYAMGWYRQAPGKERELVAAITSSGGSTYYADSVKGRFTISRDNAKNTVYLQMNSLKPEDTAVYYCAARPWIWARAGYYWGQGTQVTVSS,high polyreactivity
11,QVQLVESGGGLVQAGGSLRLSCAASGFTFAYYAMGWYRPAPGKERELVAAITSGGRTNYADSVKGRFTISRDNAKNTVYLQMNSMKPEDTAVYYFAKGYRRVYGPLYYWGQGTQVTVSS,low polyreactivity
12,QVQLVESGGGLVQAGGSLRLSCAASGFTFAYYAMGWYRQAAGKERELVAAITVSGASTYYADSVKGRFTISRDNAKNTDYLQMNRLKPEETAVYYCARYYAIVSGYYDDGYWGQGTQVTVSS,high polyreactivity
13,QVQLVESGGGLVQAGGSLRLSCAASGFTFAYYAMGWYRQAPGKERELVAAISSRGGSTYADSVKGRFTISRDNAKNTVYLQMNSLKPEDTAVYYCNAVVPRSRYFSWTYDYWGQGTQVTVSS,high polyreactivity
14,QVQLVESGGGLVQAGGSLRLSCAASGFTFAYYAMGWYRQAPGKERELVAAISYSGGSTYYADSVKGRFTISRDNAKNTVYLQMNSLKPEDTAVYYCAAEAGRRYNWGYDYWGQGTQVTVSS,high polyreactivity
15,QVQLVESGGGLVQAGGSLRLSCAASGFTFAYYAMGWYRQAPGKERELVAAITRGGGRTFYADSVKGRFTISRDNAKNTVYLQMNSLKPEDTAVYYCAREVYRHYAPVGYDYWGQGTQVTVSS,high polyreactivity
16,QVQLVESGGGLVQAGGSLRLSCAASGFTFAYYTMGWYRQAPGKERELVAAINWSGGSTYYADSVKGRFTISRDNAKNTVYLQMNSLKPEDTAVYYSAPTCPYYNSRQGHQYDYWGQGTQVTVSS,high polyreactivity
17,QVQLVESGGGLVQAGGSLRLSCAASGFTFCSNAMGWYRQAPGKERELVAAITWSGGRTYYADSVKGRFTISRDNAKNTVYLQMNSLKPEDTAVYYCNAYRNWWWSQYDYWGQGTQVTVSS,high polyreactivity
18,QVQLVESGGGLVQAGGSLRLSCAASGFTFDENAMGWSRQAPGINYSRASTYYADSVKGRFTISRDNAKNTVYLQMISLKPEDTAVYYCNKASYWGSGFDYWGQGTQVTVSS,low polyreactivity
19,QVQLVESGGGLVQAGGSLRLSCAASGFTFDEYAMGWYRQAPGKEREFVATISSSGGSTYYADSVKGRFTISRDNAKNTVYLQMNSLKPEDTAVYYCAADVRRLYTSGVDYWWHSEYDYWGQGTQVTLSS,low polyreactivity
20,QVQLVESGGGLVQAGGSLRLSCAASGFTFDFYAMGWYRQAPGKERELVAAINWSGSSTYYADSVKGRFTISRDTAKNTVYLQMNSLKPEDTAVYYCAAQVYYTLFPDVYTMYYWGQGTQVTVSS,high polyreactivity
21,QVQLVESGGGLVQAGGSLRLSCAASGFTFDFYAMGWYRQAPGKERELVAAISKNDGTTYYADSVKGRFTISRDNAKNTVYLQMYSLKPVDTAVYYCAAESGYPVYTYVSSGDYWGQGTQVTVSS,low polyreactivity
22,QVQLVESGGGLVQAGGSLRLSCAASGFTFDGYAMGWYRQAPGKERELVAAISQSGGSTYYADSVKGRVTISRDNAKNTVYLQMNSLKPEDTAVYYCNAYTGYRIRYDYWGQGTQVTVSS,high polyreactivity

row,Sequence,polyreactivity (PSR sort gate)
1,QVQLVESGGGLVQAGGSLRLSCAASGFTFDGYAMGWYRQAPGKERELVAAITRRGGRTYYADSVKGRFTISRDNAKNTVYLQMNSLKPEDTAVYFCAAERYGDRFYGAYDYWGQGTQVTVSS,high polyreactivity
2,QVQLVESGGGLVQAGGSLRLSCAASGFTFDINTMGWYRQAPGKERELVAAITYSGGSTYYADSVKGRFTISRDNAKNTVYLQMNSLKPEDTAVYYCATTWYFVASWYVAIYDYWGQGTQVTVSS,low polyreactivity
3,QVQLVESGGGLVQAGGSLRLSCAASGFTFDIYAMGWYRQAPGKERELVATISFTGDTTSYADSVKGRFTISRHNAKNTVYLQMNSLKPEDTAVYYCAADGSYPLSVGRENLHYAEFDYWGQGTQVTVSS,low polyreactivity
4,QVQLVESGGGLVQAGGSLRLSCAASGFTFDIYAMGWYRQAPGTERELVATISFTGDTTSYADSVKGRFTISRDNAKTTVYLQMNSLKPEDTAVYYCAADGSYPLSVGRENLHYAEFDYWGQGTQVTVSS,low polyreactivity
5,QVQLVESGGGLVQAGGSLRLSCAASGFTFDKYGMGWYRQAPGKERELVAAISSGGSTNYADSVKGRFTISRDNAKNTVYLQMNSLKPEDSAVYYCAARYYRYGRFRAYSWWTYGYWGQGTQVTVSS,high polyreactivity
6,QVQLVESGGGLVQAGGSLRLSCAASGFTFDNYGMGWYRQAPGKERDLVAAISTSGGSTYYADSVKGRFTISRDNEKNTVYFQMNSLKPEDTADYYCNVDFYEYSSVSYDYWGQGTQVTVSS,high polyreactivity
7,QVQLVESGGGLVQAGGSLRLSCAASGFTFDQYTMGWYRQAPGKERELVAAISSSGGSTYYADSVKGRFTISRDNAKNTVYLQMNSLKPEDTAVFYCAARFLLTQRFSHDYWGQGTQVTVSS,low polyreactivity
8,QVQLVESGGGLVQAGGSLRLSCAASGFTFDSNGMGWYRQAPGKERELVAAISTGGSTYYADSVKGRFTISRDNAKTTVYIPMNSLKPEDTPVYYCARDTPYPDTWYGYWGQGTQVTVSS,low polyreactivity
9,QVQLVESGGGLVQAGGSLRLSCAASGFTFDTYAMGWYRQAPGKERELVAAISWSGGSTYYADSVKGRFTISRDNAKNTVYLQMNSLKPEDTAVYYCAAETPVDWWSTSYNYWGQGTQVTVSS,high polyreactivity
10,QVQLVESGGGLVQAGGSLRLSCAASGFTFDTYGMGWYRQAPGKERELVAAITGDGDSTYYADSVKGRFTISRDNAKNTVYLQMNSLKPEDTAVYYCATDQDVVGYWTIYYYAWGYEYCGQGTQVTVSS,low polyreactivity
11,QVQLVESGGGLVQAGGSLRLSCAASGFTFDVYAKGLYRQAPGKERELVAAISIGANTYYADSVKGRFTISRDNAKSTVYLQMNSLKPEDTAVYYCAKRAYAPQYGYWGQGTQVTVSS,low polyreactivity
12,QVQLVESGGGLVQAGGSLRLSCAASGFTFDWYAMGWYRPAPGTERELVAAISTRGTSTYYADSVKGRFTISRDNAKNTVYLQMNSLKPEDTAVYYCAKRSYHGGDYWGQGTQVTVSS,high polyreactivity
13,QVQLVESGGGLVQAGGSLRLSCAASGFTFDYNAMGWYRQAPGKERELVAAISNTGDSTYYADSVKGRFTISRDNAKNTVYLQMNSLKPEDTAVYYCAATSVPRYYYWGQGTQVTVSS,low polyreactivity
14,QVQLVESGGGLVQAGGSLRLSCAASGFTFDYYAMGWYRQAPGKERELVAAISKRGGSTYYADSVKGRFTISRDNAKNTVYLQMNSLKPEDTAVYYCAAASYSSPRTSSGNYWGQGTQVYVSS,high polyreactivity
15,QVQLVESGGGLVQAGGSLRLSCAASGFTFDYYAMGWYRQAPGKERELVAAISRRGTSTYYADSVKGRFTISRDNAKNTVYLQMYSLKPEDTAVYYCNAVTSSFYNRDSDYWGQGTQVTVSS,high polyreactivity
16,QVQLVESGGGLVQAGGSLRLSCAASGFTFDYYAMGWYRQAPGKERELVATINGASSTNYADSVKGRFTISRDNAKNTVYLQMNSLKPEDTAVYYCNARYYGPDFVLAYDYWGQGTQVTESS,low polyreactivity
17,QVQLVESGGGLVQAGGSLRLSCAASGFTFDYYDLGWYRQAPGKERELVAGITYSGGRTRYADSVKGRFTISRDNAKNTVYLQMNSLKPEDTSVDYCAARPGYPYRMNYWGQGTQVTVSS,low polyreactivity
18,QVQLVESGGGLVQAGGSLRLSCAASGFTFDYYTMGWSRQAPGKERELVAAISWSGGSTYYADSVKGRFTISRDNAKNTVYLQMNSLKPEDTAVYYCAVDGPKTDDIENYWGQGTQVTVSS,low polyreactivity
19,QVQLVESGGGLVQAGGSLRLSCAASGFTFEKYAMGRYIQAPGKERELDASISWSGGRTRYADSVKGRFTISRDNAKNTVYLQMNSLKPEDTAVYYCAARPLFGWRGYNYWGQGTQVTVSS,high polyreactivity
20,QVQLVESGGGLVQAGGSLRLSCAASGFTFENYAMGWYRQAPGKERELVAAITRTGGITYYADSVKGRFTISRDNAKNTVYLQLNSLKPEDTAVYYCDADDTWTRPKNYDRYDYWGQGTQVTVSS,low polyreactivity
21,QVQLVESGGGLVQAGGSLRLSCAASGFTFFIYAMGWYSQAPGKEREFVAAITGSGGSTYYADSVKGRFTISRDNAKNTVYLQMNSLKPEDTAVYYCNTAGYDYYSTQAYDYWGQGTQVTVSS,high polyreactivity
